Measured values taken from patent publication US20200057047.

System: HA-tagged AhR

Chain of Myc-tagged PKCθ (Q04759 whole entry): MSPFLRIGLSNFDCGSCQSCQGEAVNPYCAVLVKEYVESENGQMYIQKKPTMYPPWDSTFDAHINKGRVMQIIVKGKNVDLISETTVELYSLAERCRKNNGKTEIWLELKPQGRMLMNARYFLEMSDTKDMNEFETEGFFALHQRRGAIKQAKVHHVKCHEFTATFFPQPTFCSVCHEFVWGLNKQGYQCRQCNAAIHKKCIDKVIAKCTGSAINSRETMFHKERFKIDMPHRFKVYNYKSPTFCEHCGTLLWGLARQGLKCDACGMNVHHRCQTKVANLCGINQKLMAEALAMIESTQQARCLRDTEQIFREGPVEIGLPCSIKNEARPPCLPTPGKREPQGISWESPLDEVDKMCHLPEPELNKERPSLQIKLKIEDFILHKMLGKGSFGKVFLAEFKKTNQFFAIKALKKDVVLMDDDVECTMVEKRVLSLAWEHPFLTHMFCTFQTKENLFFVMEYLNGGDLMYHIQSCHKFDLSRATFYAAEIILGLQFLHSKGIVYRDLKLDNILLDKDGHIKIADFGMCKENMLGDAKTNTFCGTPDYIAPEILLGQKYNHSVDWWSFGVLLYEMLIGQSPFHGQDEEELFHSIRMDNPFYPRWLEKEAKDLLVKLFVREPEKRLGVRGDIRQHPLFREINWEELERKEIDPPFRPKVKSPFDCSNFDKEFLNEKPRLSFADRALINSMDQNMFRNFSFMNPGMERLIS

Myc-tagged PKCθ
in vitro kinase assay: AhR Ser-36 phosphorylation: purified PKCθ indeed phosphorylated AhR at Ser-36

Myc-tagged PKCθ kinase-dead (K409W) mutant
in vitro kinase assay: AhR Ser-36 phosphorylation: purified kinase-dead (K409W) mutant of PKCθ did not
